B1: HIGAL: GH Family 53 galactanase from Humicola insolens, SEQ ID NO: 2 (wild type parent) (protein, listed as Humicola insolens)
chain: ALQYKGVDWSSVMVEERAGVRYKNVNGQEKPLEYILAENGVNMVRQRVWVNPWDGNYNLDYNIQLARRAKAAGLGLYINFHYSDTWADPAHQTTPAGWPSDINNLAWKLYNYTLDSMNRFADAGIQVDIVSIGNEITQGLLWPLGKTNNWYNIARLLHSAAWGVKDSRLNPKPKIMVHLDNGWNWDTQNWWYTNVLSQGPFEMSDFDMMGVSFYPFYSASATLDSLRRSLNNMVSRWGKEVAVVETNWPTSCPYPRYQFPADVRNVPFSAAGQTQYIQSVANVVSSVSKGVGLFYWEPAWIHNANLGSSCADNTMFTPSGQALSSLSVFHRI
modifications: mat_peptide (1)..()
B2: MTGAL: GH Family 53 galactanase from Myceliophthora thermophila, SEQ ID NO: 1 (wild type parent) (protein, listed as Myceliophthora thermophila)
chain: ALTYRGVDWSSVVVEERAGVSYKNTNGNAQPLENILAANGVNTVRQRVWVNPADGNYNLDYNIAIAKRAKAAGLGVYIDFHYSDTWADPAHQTMPAGWPSDIDNLSWKLYNYTLDAANKLQNAGIQPTIVSIGNEIRAGLLWPTGRTENWANIARLLHSAAWGIKDSSLSPKPKIMIHLDNGWDWGTQNWWYTNVLKQGTLELSDFDMMGVSFYPFYSSSATLSALKSSLDNMAKTWNKEIAVVETNWPISCPNPRYSFPSDVKNIPFSPEGQTTFITNVANIVSSVSRGVGLFYWEPAWIHNANLGSSCADNTMFSQSGQALSSLSVFQRI
modifications: mat_peptide (1)..()

Experiments:
Assay type in all cases: biochemical
[1] = HPAE-PAD check of transglycosylation products from ONPG; settings: HIGAL 110 μg/ml; ONPG 5 mg/ml with and without Gal2 or Gal3 0.05 mg/ml; room temperature, pH 6.5
Method: Using HPAE-PAD chromatography (Dionex LC-500 System, PA-100 column, linear gradient of 0-0.6 M sodium acetate in 100 mM NaOH), the production of larger oligosaccharides from transglycosylation upon incubation of HIGAL (110 μg/ml) at room temperature (0.5 to 14 min followed by heat inactivation for 10 min at 95° C. resulting in A405: 0.15-0.67) in 50 mM sodium acetate, 1 mM CaCl2, 0.01% Triton X-100, pH 6.5 with ONPG (5 mg/ml) with and without Gal2 (0.05 mg/ml) or Gal3 (0.05 mg/ml) as acceptor was verified.

[2] = pH profile of galactanase activity on lupin AZCL-galactan; settings: 15 min at 37° C., A590, unit assumed
Method: The pH profiles of the purified variants described above were established as follows: Galactanase activity at various pH was measured by mixing 500 μl 4 mg/ml lupin AZCL-galactan (Megazyme, Australia) in water with 500 μl buffer (50 mM sodium acetate, 50 mM potassium dihydrogenphosphate, 50 mM boric acid, 1 mM CaCl2, 0.01% Triton X-100 adjusted to pH 2.5, 3.5, 4.5, 5.5, 6.5, 7.5, 8.5 or 9.5 with HCl/NaOH) and 25 μl purified enzyme diluted to about 0.5-2 μg/ml in water. The mixture was incubated 15 min at 37° C., insoluble material was removed by centrifugation, and absorbance in the supernatant was measured at 590 nm.

[3] = Activity on lactose, products by HPAE-PAD; settings: lactose 100 mg/ml, 50° C., pH 6.45
Method: HIGAL (60 micrograms/ml) and MTGAL (750 μg/ml) were incubated at 50° C. with lactose (Lac) (100 mg/ml) at pH 4.8 (25 mM sodium citrate), 6.45 (25 mM sodium acetate, 0.5 mM CaCl2, 0.005% Triton X-100) and 8.6 (50 mM Tris, 0.01% Brij 35). 20 microliters samples were withdrawn after 2, 23 and 120 hours, 980 water added and enzyme inactivated by heating to 95° C. for 10 min. After a further 20 time dilution with water, samples were analysed using HPAE-PAD (Dionex LC-500 system, PA-100 column, 0-3 min: 150 mM NaOH, 3-19 min: linear gradient 0-0.18 M sodium acetate in 150 mM NaOH). Response factors for the individual peaks were estimated from standards of Gal, Glu, Lac, Gal2, Gal3 and Gal4.
In Tables 12 and 13 weight fractions of the analysed products with MTGAL at pH […] and 6.45 are given. The figures indicate weight % of the products resulting from the incubation. The term DP3 indicates transglycosylation product consisting of three sugar units, and the term DP4+ transglycosylation products consisting of four or more sugar units. Unfortunately, the analysis method used was not able to separate Glu and Gal.

| Molecule | Production of larger oligosaccharides from transglycosylation [1] | Galactanase activity at pH 2.5 ([2]; pH 2.5) | Galactanase activity at pH 3.5 ([2]; pH 3.5) | Galactanase activity at pH 4.5 ([2]; pH 4.5) | Galactanase activity at pH 5.5 ([2]; pH 5.5) | Galactanase activity at pH 6.5 ([2]; pH 6.5) | Galactanase activity at pH 7.5 ([2]; pH 7.5) | Galactanase activity at pH 8.5 ([2]; pH 8.5) | Galactanase activity at pH 9.5 ([2]; pH 9.5) | DP3 in products ([3]; incubation time 2 hours) | Glu/Gal in products ([3]; incubation time 2 hours) | Lac/Gal2 in products ([3]; incubation time 2 hours) | DP3 in products ([3]; incubation time 23 hours) | Glu/Gal in products ([3]; incubation time 23 hours) | Lac/Gal2 in products ([3]; incubation time 23 hours) | Glu/Gal in products ([3]; incubation time 120 hours) |
| --- | --- | --- | --- | --- | --- | --- | --- | --- | --- | --- | --- | --- | --- | --- | --- | --- |
| B1 | verified |  |  |  |  |  |  |  |  |  |  |  |  |  |  |  |
| B2 |  | 0% | 12% | 41% | 63% | 90% | 100% | 54% | 7% | 1.4 weight % | 1.0 weight % | 95.7 weight % | 6.3 weight % | 6.5 weight % | 85.3 weight % | 21.0 weight % |
